Measurements reported in patent US20240043533A1 (NGM BIOPHARMACEUTICALS, published 2024).

T1: extracellular domain of cyno ILT3 (cynoILT3-ECD) (cynomolgus monkey)
T1 chain: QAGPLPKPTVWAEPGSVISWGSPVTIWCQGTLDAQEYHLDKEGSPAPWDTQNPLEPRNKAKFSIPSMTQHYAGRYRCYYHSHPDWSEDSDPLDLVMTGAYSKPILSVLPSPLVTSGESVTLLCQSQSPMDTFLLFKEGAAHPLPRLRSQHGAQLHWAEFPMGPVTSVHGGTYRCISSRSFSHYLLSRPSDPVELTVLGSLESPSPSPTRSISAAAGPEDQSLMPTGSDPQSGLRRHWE


What was measured:
[1] = biological target: T1, extracellular domain of cyno ILT3 …; test: SPR (Biacore), antibody captured via anti-Fc on CM5 chip, soluble ILT3-ECD injected, 37 C
Procedure: (§1) The binding affinities of anti-ILT3 antibodies to human ILT3 and cyno ILT3 were measured using a Biacore system (GE Healthcare LifeSciences). Briefly, anti-Fc antibody (Sigma-Aldrich) was immobilized on all four flow cells of a CM5 chip using amine coupling reagents (GE Healthcare LifeSciences). Antibodies were captured on flow cells 2, 3, and 4 using flow cell 1 as a reference. Concentrations ranging from 3.3-10 nM of human or cyno ILT3-ECD were injected at a flow rate of 50 μL/min at 37° C. Kinetic data were collected over time and fit using the simultaneous global fit equation to yield affinity constants (KD values) for each antibody.

[2] = biological target: T2, extracellular domain of human ILT3 (huILT3-ECD) (human, UniProt Q8NHJ6 22-259); test: as above
T2 construct: also called human ILT3-ECD
Procedure: as §1

[3] = biological target: T1, extracellular domain of cyno ILT3 …; test: SPR (Biacore), antibody captured via anti-Fc on CM5 chip, soluble ILT3-ECD injected
Procedure: as §1
(§2) The binding affinities of various Hz48A6 and Hz45G10 antibodies to human ILT3 and cyno ILT3 were also determined using a Biacore system as described herein. Humanized antibodies comprising various combinations of a heavy chain variable region and a light chain variable region and a human Fc domain were tested, and compared with the binding affinity of the parental chimeric antibody (48A6 chimera comprising mouse 48A6 heavy and light variable regions and a human Fc domain, or 45G10 chimera comprising mouse 45G10 heavy and light variable regions and a human Fc domain).

[4] = biological target: T2, extracellular domain of human ILT3 …; test: as above
Procedure: as §1, §2

[5] = biological target: T1, extracellular domain of cyno ILT3 …; test: SPR (Biacore), antibody captured via anti-Fc on CM5 chip, soluble ILT3-ECD injected, 37 C
Procedure: as §1
(§3) The binding affinity of Hz5A7.v5 to human ILT3 and cyno ILT3 was determined using a Biacore system as described herein and compared with the binding affinity of the parental chimeric 5A7 (ch5A7) antibody and humanized 5A7 without any CDR modifications (Hz5A7.v1) (see Table 12).

[6] = biological target: T2, extracellular domain of human ILT3 …; test: as above; remark: listed apart in the source
Procedure: as §1, §3

Binder	Kd [3]	koff [3]	kon [3]	Kd [4]	koff [4]	kon [4]	also measured
anti-ILT3 antibody 3A3 (antibody, V domains shown, Mouse monoclonal antibody from hybridoma) VH: QVQLKESGPGLVAPSQSLSITCTVSGFSLTSYGVHWVRQPPGKGLEWLGVIWPGGTINYNSALMSRLSISKDNSKSQVFLKLNSLQTDDTAMYYCASDKYDGGWFAYWGQGTLVTVSA VL: DIVMTQSQKFMSTSVGDRVSITCKASQNVRTAVAWYQQKPGQSPEALIYLASNRHTGVPDRFTGSGSGTDFSLSISNVQSEDLADYFCLQHLNYPLTFGSGTKLEIK							Kd [1]: 6.3 nM; koff [1]: 0.021 s⁻¹; kon [1]: 3.4e+06 M⁻¹ s⁻¹; Kd [2]: 2 nM; koff [2]: 0.00065 s⁻¹; kon [2]: 330000 M⁻¹ s⁻¹
Hz48A6 C1/C2 (antibody, V domains shown) VH: EVQLVESGGGLVQPGGSLRLSCAASGFTFSSYGMSWVRQAPGKGLEWVATISSGGTYTFYPDSVKGRFTISRDNSKNTLYLQMNSLRAEDTAVYYCARRGWLLHYYAMDYWGQGTLVTVSS VL: DIQLTQSPSFLSASVGDRVTITCRPSESVDSFGNSFMHWFQQKPGKAPKLLIYLSSKLESGVPSRFSGSGSGTEFTLTISSLQPEDFATYYCQQHNEDPFTFGQGTKVEIK	770 nM	0.088 s⁻¹	114000 M⁻¹ s⁻¹	0.26 nM	0.000705 s⁻¹	2.72e+06 M⁻¹ s⁻¹	
Hz48A6 B0/C2 (antibody, V domains shown) VH: EVQLVESGGGLVQPGGSLRLSCAASGFTFSSYGMSWVRQAPGKGLEWVATISSGGTYTFYPDSVKGRFTISRDNAKNSLYLQMNSLRAEDTAVYYCARRGWLLHYYAMDYWGQGTSVTVSS VL: DIQLTQSPSFLSASVGDRVTITCRPSESVDSFGNSFMHWFQQKPGKAPKLLIYLSSKLESGVPSRFSGSGSGTEFTLTISSLQPEDFATYYCQQHNEDPFTFGQGTKVEIK	455 nM	0.097 s⁻¹	213000 M⁻¹ s⁻¹	0.28 nM	0.000784 s⁻¹	2.8e+06 M⁻¹ s⁻¹	
Hz48A6 B1/C2 (antibody, V domains shown) VH: EVQLVESGGGLMQPGGSLRLSCAASGFTFSSYGMSWVRQAPGKGLEWVATISSGGTYTFYPDSVKGRFTISRDNAKNSLYLQMNSLRAEDTAVYYCARRGWLLHYYAMDYWGQGTSVTVSS VL: DIQLTQSPSFLSASVGDRVTITCRPSESVDSFGNSFMHWFQQKPGKAPKLLIYLSSKLESGVPSRFSGSGSGTEFTLTISSLQPEDFATYYCQQHNEDPFTFGQGTKVEIK	531 nM	0.092 s⁻¹	174000 M⁻¹ s⁻¹	0.25 nM	0.000764 s⁻¹	3.05e+06 M⁻¹ s⁻¹	
Hz48A6 C0/C2 (antibody, V domains shown) VH: EVQLVESGGGLVQPGGSLRLSCAASGFTFSSYGMSWVRQAPGKGLEWVGTISSGGTYTFYPDSVKGRFTISRDNSKNTLYLQMNSLRAEDTAVYYCARRGWLLHYYAMDYWGQGTLVTVSS VL: DIQLTQSPSFLSASVGDRVTITCRPSESVDSFGNSFMHWFQQKPGKAPKLLIYLSSKLESGVPSRFSGSGSGTEFTLTISSLQPEDFATYYCQQHNEDPFTFGQGTKVEIK	177 nM	0.058 s⁻¹	327000 M⁻¹ s⁻¹	0.16 nM	0.000541 s⁻¹	3.45e+06 M⁻¹ s⁻¹	
Hz48A6 C2/C2 (antibody, V domains shown) VH: EVQLVESGGGLMQPGGSLRLSCAASGFTFSSYGMSWVRQAPGKGLEWVATISSGGTYTFYPDSVKGRFTISRDNSKNTLYLQMNSLRAEDTAVYYCARRGWLLHYYAMDYWGQGTLVTVSS VL: DIQLTQSPSFLSASVGDRVTITCRPSESVDSFGNSFMHWFQQKPGKAPKLLIYLSSKLESGVPSRFSGSGSGTEFTLTISSLQPEDFATYYCQQHNEDPFTFGQGTKVEIK	377 nM	0.082 s⁻¹	217000 M⁻¹ s⁻¹	0.24 nM	0.000752 s⁻¹	3.06e+06 M⁻¹ s⁻¹	
45G10 chimera (antibody, V domains shown, also called parental chimeric 45G10) VH: EVQLVESGGGLVKPGGSLKLSCAASGFTFSDYGMHWVRQAPEKGLEWVAYIFSGSSTIYYADTVKGRFTISRDNAKNTLFLQMTSLRSEDTAMYYCARADGRGAMDYWGQGTSVTVSS VL: DVQMTQTTSSLSASLGDRVTISCRASQDISKFLNWYQQKPDGTVTLLIYYTSRLHSGVPSRFSGSGSGTDYSLTISNLDQEDIATYFCQQGNTLPWTFGGGTKLEIK	37 nM	0.015 s⁻¹	410000 M⁻¹ s⁻¹	0.14 nM	0.00034 s⁻¹	2.3e+06 M⁻¹ s⁻¹	
Hz45G10 A2/A4 (antibody, V domains shown) VH: EVQLVESGGGLVQPGGSLRLSCAASGFTFSDYGMHWVRQAPGKGLEWVAYIFSGSSTIYYADTVKGRFTISRDNAKNSLYLQMNSLRAEDTAVYYCARADGRGAMDYWGQGTTVTVSS VL: DIQMTQSPSSLSASVGDRVTITCRASQDISKFLNWYQQKPGKAPKLLIYYTSRLHSGVPSRFSGSGSGTDFTFTISSLQPEDIATYFCQQGNTLPWTFGGGTKLEIK	113 nM	0.02 s⁻¹	190000 M⁻¹ s⁻¹	0.2 nM	0.00028 s⁻¹	1.4e+06 M⁻¹ s⁻¹	
Hz45G10 B1/A4 (antibody, V domains shown) VH: EVQLVESGGGLVKPGGSLRLSCAASGFTFSDYGMHWVRQAPGKGLEWVSYIFSGSSTIYYADTVKGRFTISRDNAKNSLYLQMNSLRAEDTAVYYCARADGRGAMDYWGQGTLVTVSS VL: DIQMTQSPSSLSASVGDRVTITCRASQDISKFLNWYQQKPGKAPKLLIYYTSRLHSGVPSRFSGSGSGTDFTFTISSLQPEDIATYFCQQGNTLPWTFGGGTKLEIK	76 nM	0.09 s⁻¹	1.2e+06 M⁻¹ s⁻¹	0.2 nM	0.00026 s⁻¹	1.3e+06 M⁻¹ s⁻¹	
anti-ILT3 antibody 12A12 (antibody, V domains shown, Mouse monoclonal antibody from hybridoma) VH: EVQLQQSGPELVKPGASVKISCKASGYTFTDYNMDWVKQSHGKSLEWIGYIYPNNGGTGYNQKFNSKATLTVDKSSSTAYMELHSLTSEDSAVYYCASSPYYDYVGSYAMDYWGQGTSVTVSS VL: QIVLTQSPAIMSASLGERVTMTCTASSSVSSSYLHWYQQKPGSSPKLWIYSTSNLASGVPARFSGSGSGTSYSLTISSMEAEDAATYYCHQYHRSPRTFGGGTKLEIK							Kd [1]: 1.9 nM; koff [1]: 0.00028 s⁻¹; kon [1]: 150000 M⁻¹ s⁻¹; Kd [2]: 8.5 nM; koff [2]: 0.00094 s⁻¹; kon [2]: 110000 M⁻¹ s⁻¹
anti-ILT3 antibody 45G10 (antibody, V domains shown, Mouse monoclonal antibody from hybridoma) VH: EVQLVESGGGLVKPGGSLKLSCAASGFTFSDYGMHWVRQAPEKGLEWVAYIFSGSSTIYYADTVKGRFTISRDNAKNTLFLQMTSLRSEDTAMYYCARADGRGAMDYWGQGTSVTVSS VL: DVQMTQTTSSLSASLGDRVTISCRASQDISKFLNWYQQKPDGTVTLLIYYTSRLHSGVPSRFSGSGSGTDYSLTISNLDQEDIATYFCQQGNTLPWTFGGGTKLEIK							Kd [1]: 5 nM; koff [1]: 0.00076 s⁻¹; kon [1]: 150000 M⁻¹ s⁻¹; Kd [2]: 0.13 nM; koff [2]: 5.1e-05 s⁻¹; kon [2]: 390000 M⁻¹ s⁻¹
Hz5A7.v1 (humanized 5A7 without any CDR modifications) (antibody, V domains shown) VH: EVQLVESGGGLVQPGGSLRLSCAASGFTFSSYGMSWVRQAPGKGLEWVATISGGGSYTNYPDSVKGRFTISRDNAKNSLYLQMNSLRAEDTAVYYCARREWRMTLYAMDYWGQGTTVTVSS VL: DIQLTQSPSFLSASVGDRVTITCRASESVDSYGNSFMHWYQQKPGKAPKLLIYLTSNLESGVPSRFSGSGSGTEFTLTISSLQPEDFATYYCQQNNEDPFTFGQGTKLEIK							Kd [5]: 0.65 nM; koff [5]: 0.0077 s⁻¹; kon [5]: 1.2e+07 M⁻¹ s⁻¹; Kd [6]: 0.48 nM; koff [6]: 0.0012 s⁻¹; kon [6]: 2.5e+06 M⁻¹ s⁻¹
48A6 chimera (antibody, V domains shown, also called parental chimeric 48A6) VH: EVQLVESGGDLMKPGGSLKLSCAASGFTFSSYGMSWVRQTPDKRLEWVATISSGGTYTFYPDSVKGRFTISRDNAKNTLYLQMSSLKSEDTAMYYCARRGWLLHYYAMDYWGQGTSVTVSS VL: NIVLTQSPASLAVSLGQRATISCRPSESVDSFGNSFMHWFQQKPGQPPKLLIYLSSKLESGVPARFSGSGSRTDFTLTIDPVEADDAATYYCQQHNEDPFTFGSGTKLEIK	54 nM	0.11 s⁻¹	1.99e+06 M⁻¹ s⁻¹	0.066 nM	0.000868 s⁻¹	1.31e+07 M⁻¹ s⁻¹	
